{"source": "paper PMC7295030", "about": "“Aggregation pathways of human γ D crystallin induced by metal ions revealed by time dependent methods” (PeerJ, 2020)", "proteins": {"B1": {"name": "Human γD crystallin (natural protein)", "chain": "GKITLYEDRGFQGRHYECSSDHPNLQPYLSRCNSARVDSGCWMLYEQPNYSGLQYFLRRGDYADHQQWMGLSDSVRSCRLIPHSGSHRIRLYEREDYRGQMIEFTEDCSCLQDRFRFNEIHSLNVLEGSWVLYELSNYRGRQYLLMPGDYRRYQDWGATNARVGSLRRVIDFS", "notes": "Human γD crystallin (HγD), UniProt P07320; Only the vector pET16b is named; For NMR the protein was 15N-labelled (1H-15N HSQC); also called HγD; human gamma D crystallin; source: E. coli BL21-RIL (plasmid pET16b-HγD), purified (Q-Sepharose, Sephadex 200)"}}, "molecular_target": "the molecule itself", "test": "dynamic light scattering; HγD 50 µM with 1.5 equivalents of CuSO4, 10 mM ammonium acetate pH 7.2, 50 mM NaCl, 37 °C, measured every 1.6 min during 12 h"}
{"protein": "B1", "values": [{"measurement": "binding result", "result": "binds"}]}
